In patent publication EP4545563A1 (Foreseen Technology (Beijing) Co., Ltd., dated 2024):

T1: ITGA2 protein on the surface of human tumor cells (HuCCT1, A431) (human, UniProt P17301 30-1181)
T1 sequence (looked up): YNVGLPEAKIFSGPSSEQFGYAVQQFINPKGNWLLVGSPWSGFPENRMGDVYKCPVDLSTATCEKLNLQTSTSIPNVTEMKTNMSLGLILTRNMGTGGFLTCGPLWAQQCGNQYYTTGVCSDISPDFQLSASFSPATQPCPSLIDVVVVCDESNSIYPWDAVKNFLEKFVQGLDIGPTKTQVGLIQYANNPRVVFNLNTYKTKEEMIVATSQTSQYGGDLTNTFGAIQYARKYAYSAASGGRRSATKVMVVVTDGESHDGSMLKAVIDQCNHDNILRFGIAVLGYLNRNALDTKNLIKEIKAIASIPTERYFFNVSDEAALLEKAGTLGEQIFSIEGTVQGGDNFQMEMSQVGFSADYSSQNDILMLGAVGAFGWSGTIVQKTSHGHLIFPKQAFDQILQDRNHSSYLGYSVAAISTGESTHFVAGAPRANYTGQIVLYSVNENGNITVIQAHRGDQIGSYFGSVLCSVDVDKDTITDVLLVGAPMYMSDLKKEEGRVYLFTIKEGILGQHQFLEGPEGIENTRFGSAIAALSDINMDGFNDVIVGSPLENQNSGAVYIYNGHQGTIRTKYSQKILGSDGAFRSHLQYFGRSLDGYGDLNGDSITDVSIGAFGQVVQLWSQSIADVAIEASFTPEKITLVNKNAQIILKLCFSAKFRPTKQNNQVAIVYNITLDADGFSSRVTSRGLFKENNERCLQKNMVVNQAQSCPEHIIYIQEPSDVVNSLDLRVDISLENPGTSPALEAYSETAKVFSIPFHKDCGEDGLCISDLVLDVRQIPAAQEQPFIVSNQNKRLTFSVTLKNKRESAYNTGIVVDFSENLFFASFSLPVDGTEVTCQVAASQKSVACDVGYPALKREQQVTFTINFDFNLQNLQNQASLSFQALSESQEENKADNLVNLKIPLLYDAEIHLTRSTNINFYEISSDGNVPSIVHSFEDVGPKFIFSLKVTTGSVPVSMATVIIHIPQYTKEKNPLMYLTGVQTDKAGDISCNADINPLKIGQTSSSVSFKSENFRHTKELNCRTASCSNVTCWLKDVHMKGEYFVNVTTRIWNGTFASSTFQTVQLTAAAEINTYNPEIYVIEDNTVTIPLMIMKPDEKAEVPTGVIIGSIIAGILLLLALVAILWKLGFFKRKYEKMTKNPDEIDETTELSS

T2: ITGA2-His (human, UniProt P17301 30-1132, limits assumed)
T2 construct: also called ITGA2 protein; not shown: His tag
T2 sequence (looked up): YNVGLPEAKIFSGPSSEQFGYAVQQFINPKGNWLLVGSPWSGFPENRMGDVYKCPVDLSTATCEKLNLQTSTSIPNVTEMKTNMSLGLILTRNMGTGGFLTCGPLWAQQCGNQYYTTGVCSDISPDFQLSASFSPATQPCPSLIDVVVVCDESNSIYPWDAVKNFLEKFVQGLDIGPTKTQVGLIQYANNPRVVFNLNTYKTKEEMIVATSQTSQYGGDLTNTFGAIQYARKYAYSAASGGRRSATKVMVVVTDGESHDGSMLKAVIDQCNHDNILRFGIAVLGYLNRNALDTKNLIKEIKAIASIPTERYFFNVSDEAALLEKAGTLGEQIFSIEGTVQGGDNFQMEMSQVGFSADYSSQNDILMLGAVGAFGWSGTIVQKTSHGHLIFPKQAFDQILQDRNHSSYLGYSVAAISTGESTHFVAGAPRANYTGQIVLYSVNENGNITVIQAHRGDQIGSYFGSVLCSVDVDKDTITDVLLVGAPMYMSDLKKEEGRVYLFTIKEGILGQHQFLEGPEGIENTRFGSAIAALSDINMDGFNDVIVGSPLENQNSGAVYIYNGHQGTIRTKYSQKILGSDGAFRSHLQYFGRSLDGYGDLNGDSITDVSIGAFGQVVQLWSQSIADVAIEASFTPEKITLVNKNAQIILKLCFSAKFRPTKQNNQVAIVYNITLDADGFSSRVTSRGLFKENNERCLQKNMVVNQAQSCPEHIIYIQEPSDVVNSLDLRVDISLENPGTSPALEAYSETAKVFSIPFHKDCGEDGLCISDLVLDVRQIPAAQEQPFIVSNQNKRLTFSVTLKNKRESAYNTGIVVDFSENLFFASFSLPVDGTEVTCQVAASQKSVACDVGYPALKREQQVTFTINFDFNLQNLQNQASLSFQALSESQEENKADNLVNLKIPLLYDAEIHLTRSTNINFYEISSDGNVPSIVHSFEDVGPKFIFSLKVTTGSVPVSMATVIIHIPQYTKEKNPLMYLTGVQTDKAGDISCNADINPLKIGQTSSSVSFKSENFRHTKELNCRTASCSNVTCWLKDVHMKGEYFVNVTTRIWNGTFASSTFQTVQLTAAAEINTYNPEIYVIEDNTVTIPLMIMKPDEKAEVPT

B1: FS002-A36-vc-MMAE (antibody, human IgG1, kappa, V domains shown)
VH: QVQLQESGPGLVKPSQTLSLTCTVSGGSISSGGYYWSWIRQHPGKGLEWIGYIYYSGSTYYNPSLKSRVTISVDTSKNQFSLKLSSVTAADTAVYYCARVRLLGGGFDIWGQGTTVTVSS
VL: EIVLTQSPATLSLSPGERATLSCRASQSVSTYLAWYQQKPGQAPRLLIYDTSIRATGIPARFSGSGSGTDFTLTISSLEPEDFAVYYCQQRSNWPLTFGGGTKVEIKR
modifications: vc-MMAE (mc-vc-PAB-MMAE) linker-payload conjugated after TCEP reduction, DAR 3.8 for the whole antibody; sites not stated
B2: Humanized antibody FS002-A66 (antibody, human IgG1, kappa, V domains shown)
VH: EVQLVESGGGVVQPGRSLRLSCAASGFTFSSYAMHWVRQAPGKGLEWVAVISYDGSNKYYVDSVKGRFTISRDNSKNTLYLQMNSLRAEDTAVYYCARDRITYLDYYYYGMDVWGQGTTVTVSS
VL: EIVLTQSPAILSLSPGERATLSCRASQSVSEYLAWYQQKPGQAPRLLIYDISNRATGIPARFSGSGSETDFTLTISSLEPEDFAVYYCQQRRTWPLTFGPGTKVDIKR
notes: IgG1 heavy chain, kappa light chain
B3: Humanized antibody FS002-A5 (antibody, human IgG1, kappa, V domains shown)
VH: QVQLQDSGPGLVKPSQTLSLTCTVSGGSISSGGYYWSWIRQHPGKGLEWIGYIYYSGSTYYNPSLKSRVTISVDTSKNQFSLKLSSVTAADTAVYYCARVPVPLVGAFDIWGQGTMVTVSS
VL: EIVLTQSPATLSLSPGERATLSCRASQSVSSNLGWYQQKPGQAPSLLIYGASNRATGIPARFSGSGSGTDFTLTISSLEPEDFAVYYCQQRDTWPLTFGGGTKVEIKR
notes: as for B2
B4: FS002-A15-vc-MMAE (antibody, human IgG1, kappa, V domains shown)
VH: RLQLQESGPGLVKPSQTLSLTCTVSGGSISSGGYYWSWIRQHPGKGLEWIGYIYYSGSTYYNPSLKSRVTISVDTSKNQFSLKLSSVTAADTAVYYCARATIYGYFDYWGQGTLVTVSS
VL: EIVLTQSPATLPLSPGERATLSCRASQSVGFYLAWYQQKPGQPPRLLFYDASKRATGIPARFSASGSGTDFTLTISGLEPEDFAVYYCQHRISWPLTFGQGTKVEVKR
modifications: vc-MMAE (mc-vc-PAB-MMAE) linker-payload conjugated after TCEP reduction, DAR 2.9 for the whole antibody; sites not stated
B5: Humanized antibody FS002-C11 (antibody, human IgG1, kappa, V domains shown)
VH: RLQLQESGPRLVKPSETLSLTCSVSGGSISSRNHYWAWIRQPPGKGLEWIGYIYYSGSTYYNPSLKSRVTISVDTSKNQFSLKLSSVTAADTAVYYCARVGLLLRDFDYWGQGTLVTVSS
VL: DIQMIQSPSSVSASVGDRVTITCRASQGISNSLAWYQHKPGTTPKLLIYAASSLQGGVPSRFSGSSSETDFTLTISSLQPEDFATYYCQQANSFPITFGQGTRLDIKR
notes: as for B2
B6: Humanized antibody FS002-A72 (antibody, human IgG1, kappa, V domains shown)
VH: QVQLVDSGGGLVQPGGSLRLSCVASGFAFSNYEMNWVRQAPGKGLEWVSYISSSSSYTNYADSVKGRFTISRDNAKNSLYLQMNSLRAEDTAVYYCARAQVRDAFDIWGQGTTVTVSS
VL: IVMTQSPVTLSVSPGDSATLSCRASQSVDKNLAWYQQKTGQAPRLLIYGAATRATGIPARFSGSGSGTEFTLTISSLRSEDFAVYYCQQYRNWPWTFGLGTKVEIKR
notes: as for B2
B7: FS002-A1-vc-MMAE (antibody, V domains shown)
VH: QVQLVQSGAEVKKPGASVKVSCKASGYTFTSYYMHWVRQAPGQGLEWMGIINPSGGSTSYAQKFQGRVTMTRDTSTSTVYMELSSLRSEDTAVYYCARDISGSYQTDAFDIWGQGTMVTVSS
VL: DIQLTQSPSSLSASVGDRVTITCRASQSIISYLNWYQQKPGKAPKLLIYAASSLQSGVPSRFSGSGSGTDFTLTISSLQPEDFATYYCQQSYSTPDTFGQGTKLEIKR
modifications: vc-MMAE (mc-vc-PAB-MMAE) linker-payload conjugated after TCEP reduction, DAR 3.4 for the whole antibody; sites not stated
B8: Humanized antibody FS002-B27 (antibody, human IgG1, kappa, V domains shown)
VH: QVQLVQSGAEVKKPGSSVKVSCKASGGTFSSYAISWVRQAPGQGLEWMGRIIPILGIANYAQKFQGRVTITADKSTSTAYMELSSLRSEDTAVYYCARAEGSSWYYFDYWGQGTLVTVSS
VL: NIQLTQSPSSVSASVGDRVTITCRASQGFSRWLAWYQQKPGKAPKLLIYGASSLQSGVPSRFSGSGSGTDFTLTISSLQPEDFATYYCQQANSFPLTFGGGTKLEIKR
notes: as for B2

What was measured:
[1] = biological target: T1, ITGA2 protein on the surface of human …; assay: cell-based or functional assay
ITGA2-His = biological target: T2, ITGA2-His; assay: ELISA, plate coated with 2 ug/mL ITGA2-His, anti-human IgG-Fc-HRP detection
[2] = biological target: T1, ITGA2 protein on the surface of human …; assay: flow cytometry on HuCCT1 cells, goat anti-human IgG (H+L) secondary antibody

Binder	A431 cell killing IC50 [1] [nM]	HuCC-T1 cell killing IC50 [1] [nM]	EC50 (ITGA2-His) [nM]	EC50 [2] [nM]
B1	0.02	0.08	–	–
B2	–	–	0.031	2.35
B3	–	–	0.032	1.27
B4	0.2	0.2	–	–
B5	–	–	0.035	0.747
B6	–	–	0.259	17.2
B7	0.14	0.14	–	–
B8	–	–	0.571	2.75
